Results: the nanobody polyreactivity screen of Harvey et al. (2022)

Assay: yeast display, Sf9 membrane polyspecificity reagent, FACS + sequencing; frameworks hold sequencing errors
Summary of the method: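 Galactose-induced (36–48 hours) yeast carrying a synthetic nanobody display library were exposed to 10% biotinylated, detergent-solubilized Sf9 membrane reagent at 4 °C for 1 hour. FACS followed streptavidin microbead enrichment, using low and high (top ~1%) gates for expression (anti-HA) and reagent binding (streptavidin). Colony PCR, MiSeq 2 × 250 sequencing and CDR-length filtering followed. Labels for polyreactivity reflect the gate of origin.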

| Sequence | polyreactivity (PSR sort gate) |
| --- | --- |
| QVQLVESGAGLVQAGGSLRLSCAASGFIFNRYAMGWYRQAPGKERELVAAIRGSGGSTYADSVKGRFTISRDNAKNTVYLQMNSLKPEDTAVYYCNKERPRRNGQVARYDYWGQGTQVTVSS | low polyreactivity |
| QVQLVESGAGLVQAGGSLRLSCAASGFIFRGNTMGWYRQAPGKERELVASITRGGGRTYYADSVKGRFTISRDNAKNTVYLQMNSLKPEDTAVYYCAARTRSDNSYHGGEYWGQGTQVTVSS | high polyreactivity |
| QVQLVESGAGLVQAGGSLRLSCAASGIFVRYGMGWYRQAPGKERELVAAISYGGGSTYYADSVKGRFTISRDNAKITVYLQMNSLKPEDTAVYYCAASYANRYKYDEYDYWGQGTQVTVSS | high polyreactivity |
| QVQLVESGAGLVQAGGSLRLSCAASGITFSKYAMGWYRVARGKDRELVAAISSTASTNYADSVKGRFTISRDNAKNTVYLQMNSQKPDDTAVYYCNDVLFFQLFWTYDDYWGQGSQVTVSS | low polyreactivity |
| QVQLVESGAGLVQAGGSLRLSCAASGLTFFYYAMGWYRQAPGKERELVAAIDNDGGTYYADSVKGRFTISRDNAKNTVYLLMNSLKPEDTAVYYCNADYQTVDDPYGYDYWGQGTQVTVSS | low polyreactivity |
| QVQLVESGAGLVQAGGSLRLSCAASGRIFADYAMGWYRQAPGKERELVADIRQSGGRTYYADSVKGRFTISRDNAKNTVYLQMNSLKPEDTAVYYCATDYGSWGDYSGKYDYWGQGTQVTVSS | low polyreactivity |
| QVQLVESGAGLVQAGGSLRLSCAASGRIFAGYAMGWYRQAPGKEMELVATISSGGSTYYADSVKGRFTISRYNAKNTVYLQMNSLKPEVTAVYYCAADNWVNDGDYCGQGTQVTVSS | low polyreactivity |
| QVQLVESGAGLVQAGGSLRLSCAASGRIFHKYAMGWYRQAPGKERELVAAIDWSGGSTYYADSVKGRFTISRDNAKNTVYLQMNSLKPEDTAVYYCAAYWYYEDGQCEARLYGYDYWGQGTQVTVSS | low polyreactivity |
| QVQLVESGAGLVQAGGSLRLSCAASGRIFLGNAMGWYRQAPGKERELVAAISRSGVTRYYADSVKGRFTISRYNGKNTVYLQMNSLKPEDTAVYYCAVERYDRFDHYYWVQGTQVTVSS | low polyreactivity |
| QVQLVESGAGLVQAGGSLRLSCAASGRIFYKYVMGWYRQAPGKERELVATITSGGSTYYADSVKGRFTISRDNAKNTVYLQMNSLKPEDTAVYYCATKQSRTRYDRYGYWGQGTQVNVSS | high polyreactivity |
| QVQLVESGAGLVQAGGSLRLSCAASGRTFFRYVMGWYRQAPGKERELVAAIRSGGSTNYADSVKGRFTISLDNAKNTVYLQMNSLKPEDTAVYYCAARKWHSAYDYWVQGTQVTVSS | high polyreactivity |
| QVQLVESGAGLVQAGGSLRLSCAASGRTFRINTMGWSIQAPGKERELVATITGSGGSTYYADSVKGRFTISRDNAKNTVYLQMNSLKPEDTAVYYCAAVGDQNEYDYWGQGTQVTVSS | low polyreactivity |
| QVQLVESGAGLVQAGGSLRLSCAASGRTFSAYAMGWYRQAPGKERELVAAITLSVGSTYYADSVKGRFTISRDNAKTTVYLQMNSLKPEDTAVYYCNKYKKGEGGITIVRFDYWGQGTQVTVSS | low polyreactivity |
| QVQLVESGAGLVQAGGSLRLSCAASGSIFDYYAMGLYRQAPGKERELVAVITRGGSTYYADSVKGRFTISRDNAKNTDSLQMNSLKPEDTAVYYCNASRGYKSRYEYWGQGTQVTVSS | high polyreactivity |
| QVQLVESGAGLVQAGGSLRLSCAASGSIFEYYAMGWYRQAPGKERELVAAISSGGPTYYADSVKGRFTISRDNAKNTVYLQMNSLKPEDTAVYYCNAALRYPDYDYWGQGTQVTVSS | low polyreactivity |
| QVQLVESGAGLVQAGGSLRLSCAASGSIFRKYGMGLYRQAPGKDRELVATITSSGGSTYYADSVKGRFRISRDNAKNTVYVQMNSLIPEDTAVYYCAARWTYSFHWFSRYDYWGPGTQVTVSS | high polyreactivity |
| QVQLVESGAGLVQAGGSLRLSCAASGSIFYYYAMGWYRQAPGKEREFVAAIRESGGSTYYADSVKGRFTISRDNAKNTVYLQMNSLKPEDTAVYYCAVRRPRRNYNYPYDYWGLGTQVTVSS | low polyreactivity |
| QVQLVESGAGLVQAGGSLRLSCAASGSTFRSNAMGWYRPAPGKEREFVASITSRGGPTYYADSVKGRFTISRDNAKNTVYLQMKSLKPEDTAVYYCASARSYLTYFYHYDYWGQGTQVTVSS | low polyreactivity |
| QVQLVESGAGLVQAGGSLRLSCAASGSTLVGNTMGWYRQSPGKERELVAAITGVGSTNYADSVKGRFTISRDNAKNTVYLQMNSLKPEDTAVYYCAVDGRSVQARWPRFDYWGQGTQVTVSS | low polyreactivity |
| QVQLVESGAGLVQAGGSLRLSCAASGYAMGWYRQAPGKERELVAAITSNGGRTYYADSVKGRFTISRDYAKNTVYLEMNSLKPEDTAVYYCATRTGPHYKTRWTYDQGYWGQGTQVTVSS | low polyreactivity |
| QVQLVESGAGLVQAGGSLRLSCAASGYIFGQNAMGWYRQAPGKERELVASISDGGSTYYADSVKGRFTISRDNAKNTVYLQMNSLKPEDTAVYYCAAGQDWGEKALGAWLFDYWGHGTQVTVSS | low polyreactivity |
| QVQLVESGAGLVQAGGSLRLSCAASVSIFDIYAMGWYRQAPGKERELVADISWSGGSTYYADSVKGRFTISRDNAKNSVYLQMNSLKPEDTAVFDCAAELYGFTVDPGDYWGQGTQVTVSS | low polyreactivity |

| Sequence | polyreactivity (PSR sort gate) |
| --- | --- |
| QVQLVESGAGLVQAGGSLRLSSAASGSIFEPNAMGWYRQAPGKERELVAAITSGGTTYADSVKGRFTISRDNAKNSVYFQMNSLKPEDSAVYYCAAYYIFVYYYPFDYWGQGTQVTVSS | low polyreactivity |
| QVQLVESGAGLVQAGGSLRLSWAASGSNYDIYAMGWYRQAPGKERELVAAITGSGGSTNYADSVKGRFTISRDNAKNTVYVQLNSLKPEDTAVYYCAAAGFDYPSDTYGYWGQGTQVTVSS | low polyreactivity |
| QVQLVESGAGLVQAGGSLSLSCAASGRIFDRYVMGWYRQAPGKERELVAAISDGGSTYYADSVKGRFTISRDNAKNTVYLQMNSLKPEDTAVYYCAAVRYNSRVSTTPSEMYYWGQGTQVTVSS | low polyreactivity |
| QVQLVESGAGLVQAGGSLSLSCAASVSILRFYAMGWYRQAPGKERELVAAISTRGGSTYYADSVKGRFTISRVNAKYTVYLQMNSLKPEDTAVYYCAKRWPQYTDYKPMYYWGQGTQLTVSS | high polyreactivity |
| QVQLVESGAGLVQAGGTLRLSCAASGRTRQYNDMGWYRQAPGKERELVAAMTWSGGLTYYADSVKGRFTISRDNAKNTVYLKMNCLKPEDTAVYYCAVDGGTPGALRRFNYWGQGTQVTVSS | high polyreactivity |
| QVQLVESGAGLVQAGVSLRLSCAASGRIFVVNAMGRYRHAPGKERELVAAISRGGSTNYADSVKGPFTISRDNAKNTVYLQMNSLKPEDTAVYYCNADGSSYWYPVPLDGGDYWGQGTLVTVSS | low polyreactivity |
| QVQLVESGAGLVQAPGSLRLSCAASGRTFPRNAMGRYRQAPGKERDLVATISLSGGSTYYADSVKGRFTISRDNAKNTVYLQMNSLKPEDSADYYCARTRNPWPTSFDYWGQGTQVTVSS | low polyreactivity |
| QVQLVESGAGLVQEGGRLRLRCAASGFTFMDNAMGCYRKAPGKETQLVAAISRSGGSTYYADSVKGRFTISRDNAKNTVYLQMKSLKPEDTEGFYCAAFLYRSQYSGFEYWGQGTQVTVSS | high polyreactivity |
| QVQLVESGAGLVQEGGSLRLSCAASGRTSGFNTMGRYRQAPGKETQLVAAISFSGGSTYYADSVKGRFTISRDNEKNTVYLQMNSLKPEDTEVYYCNALYRYLYRSGDYWGQGTQVSVSS | low polyreactivity |
| QVQLVESGAGLVQEGGSLRLSCAASGSIFQAYAMGWYRKAPGKERELVANISSGGSTNYADSVKGRFTISRDNAKNTVYLQMNSLKPEDTAVYYCAASRWIFVLTYEYDYWNRRDYWGQGTQVTVSS | low polyreactivity |
| QVQLVESGARLVQAGGSLRLSCAASGFIFRAYTMGWYRQAPGKERELVAAITSSGGRTYYADSVKGRFTISRDNAKNTVYLQMNSLKPEDTAVYYCATVDAKWKQFDYWGQGTQVTVSS | high polyreactivity |
| QVQLVESGARLVQAGGSLRLSCAASGLIFYGNAMGWYRQAPGKERELVAAISRRGGRTYYADSVKGRFTISRDNAENTVYLQKNSLKPEDTAVYYCAAQYSYPYYKVTLYYWGQGTQVTVSS | high polyreactivity |
| QVQLVESGEGLVQAGGSLRLSCAASGITFFRNTMGWYRHAPGKERELVAAISKSGDNTYYADSVKVRFTISRDNAKNTVYLQMNSLKPEDTAVYYCNKAYRKFYYGYDYWGQGTQVTVSS | high polyreactivity |
| QVQLVESGGAFVQAGGSLRLSCAASGIIFERNAMGWYRQAPGNERELVAAISGGGSTNYADSVKGRFTISRDNEMNTVYLQRISLKPDDTAVYYCAGKAARRRGYYYWGQGTQVTVSS | high polyreactivity |
| QVQLVESGGALVQAGGRLRLSCAASGSILVTNDMGLYRQAPGKDRELEAAICWSGGSTYYADSVKGRFTISRDNAKNSVYLQMNSLKPEDTAVYYCAAGLGFLFARQALEFDYWGQGTKVTVSS | low polyreactivity |
| QVQLVESGGALVQAGGRLRLSCAASGSTFTYNAMGWYRQAPGKERELVASISSGTTTYYADSVKGRFTISRDNAKNTVSLQMNSLKPEDTAVYDCAVDSWSRVQGWLAHNYDYWGQGTQVTVSS | low polyreactivity |
| QVQLVESGGALVQAGGSHRLSCAASGRIFAGNAMGWYRMAPGKEMELLAAISKSGGSTYYADSVKGRFTISRDNAKNTVYLQMNSLKAEDTAVSYCAKLYYPVSDQYDYYYWGPGTQVTVSS | low polyreactivity |
| QVQLVESGGALVQAGGSIRLSCAASGRIFLHYAMGWYRQAPGKERELVAAISSSGGSTYYADSVKGRFTISRDNAKNTVYLQMKSLKPEDTAVYYCAAAYPVKTTEGYYYWGQGTHVTVSS | high polyreactivity |
| QVQLVESGGALVQAGGSLRISCAASGLIITHYAMGWYRQAPGKEMELVAAISNGGSTNYADSEKGRFTISRDNAKNTVYLEMNSLKPEDTAVSFCNARPNKYYAYPATRGKYYYWGQATQVTVSS | low polyreactivity |
| QVQLVESGGALVQAGGSLRISCAASGLIIVRKAMGLYRQAPGKERELVAAIRWSGGSTYYADSVKGRFTISRDNGNNTVFLQMNRLKPEDTSVYYCAATGYGFDMDYWGQGTQVNVSS | low polyreactivity |
| QVQLVESGGALVQAGGSLRISCAASGRTLSAYAMGLYRQAPGKERELVAVISRSGGRTYYADSVKGRFTISRDNAKNTVYLQMNSLKQEDSAVYYCAAGSSRLRALYNYWGQGTQVNVSS | high polyreactivity |
